Test: soluble on expression in E. coli; label from the status in PepcDB or PDB records

Row | Sequence | soluble on expression in E. coli
1 | MKPKKLSLLLTILPMIIAATGCHSQQESKVDITPHCINLQADSLYRQAMTLMESSCDVDSTRKCIRFLDKALAIDSLNPDYYGMKAKLLSEMGELDSALYIQTLAMEKNAITGEYLFQLGLLQAAKDMHAEAHESFGKSKVFLQAVLKQYPDSLGAFILAEAANSLYENKDSLFMRNIDEIRKRFPERLLEIEMTRRVKPHSLVNQIRRIKIEKDYNIDFDMDSLVEATVNKDLEHHHHHH | not soluble
2 | MSLSMLPSFGFTQEQVACVCEVLQQGGNLERLGRFLWSLPACDHLHKNESVLKAKAVVAFHRGNFRELYKILESHQFSPHNHPKMQQLWLKAHYVEAEKLRGRPLGAVGKYRVRRKFPLPRTIWDGEETSYCFKEKSRGVLREWYAHNPYPSPREKRELAEATGMTTTQVSNWFKNRRQRDRAAEAKERENTENEGHHHHHH | not soluble
3 | MAHHHHHHMKLNIAYPRNGTVKQFEISDEVLRRVQLQDYRLGNEVDGAIFGSEFKGYIFRLRGGSDKDGFPMVPGVLASSRVSLLVKRGAIGFNTFRGYQGERRRKNVRGCVLASDIALVNVTISKVGDQPIEGVTDTTAPRRLGP | not soluble
4 | MGHHHHHHSHDSKACISIGNQNFEVKADDLEPIMELGRGAYGVVEKMRHVPSGQIMAVKRIRATVNSQEQKRLLMDLDISMRTVDCPFTVTFYGALFREGDVWICMELMDTSLDKFYKQVIDKGQTIPEDILGKIAVSIVKALEHLHSKLSVIHRDVKPSNVLINALGQVKMCDFGISGYLVDSVAKTIDAGCKPYMAPERINPELNQKGYSVKSDIWSLGITMIELAILRFPYDSWGTPFQQLKQVVEEPSPQLPADKFSAEFVDFTSQCLKKNSKERPTYPELMQHPFFTLHESKGTDVASFVKLILGD | not soluble
5 | LKDFSFDLNVNLAKNVSNVEKLADGVDYIYFNGDSNFPINVGARPGHKLGEIYAKTLYKRDEQGNIIINKENGLPMTTTDADERLAKPIGNIQPNLLMSVSPSFTYKGITLSAIFDMKFGGDIISISEMNATGSGMAKRTMNRGESDNFMMIFPGVYEDGTPNTQKISASNYYGAQNAEDFIYDASFIKLKELAIGYTFPKSMLKKTPINSLNVSFVARNLAYLLKHTPGTSPEGGYDTTMFSQAIDFMAVPYTRTFGFSVNLGF | not soluble
6 | HHHHHHHMTAPAADDRIDEIERAITKSRRYQTVAPATVRRLARAALVAARGDVPDAVKRTKRGLHEIYGAFLPPSPPNYAALLRHLDSAVDAGDDEAVRAALLRAMSVHISTRERLPHLDEFYRELFRHLPRPNTLRDLACGLNPLAAPWMGLPAETVYIASDIDARLVGFVDEALTRLNVPHRTNVADLLEDRLDEPADVTLLLKTLPCLETQQRGSGWEVIDIVNSPNIVVTFPTKSLGQRSKGMFQNYSQSFESQARERSCRIQRLEIGNELIYVIQK | soluble
7 | FLILLRKTLEQLQEKDTGNIFSEPVPLSEVPDYLDHIKKPMDFFTMKQNLEAYRYLNFDDFEEDFNLIVSNCLKYNAKDTIFYRAAVRLREQGGAVLRQARRQAEKMG | soluble
8 | GPGSMAALRYLLAPRRALVTPFLRSVTCVSSGGIFSSQRPHTFPVLWHAVRTHSNDSGERSKPLTLHVQLPCGTMRTLTAYEGQTLLDVAMEHGLPIEGACGGSCACSTCHVYLENDEAMELFDEATDEENDMLDMAFFPQSTSRLGCQLTLRQQKHDGLKISLPKATRNMYVDGHTITPHH | not soluble
9 | MRCPNCNSLDTQVKDSRPTEDSSVIRRRRVCIACNFRFTTFERVQLRELIVIKRNGRRVPFDRDKLMRSVQISLRKRPVDPERVEQMVSAIVRELESGGEAEISSETIGESVMDHLRKLDDVAYVRFASVYRNFREAKDFEAVLGELSHEDEARAALVRK | not soluble
10 | MLLDVQRGQLSFTKYSIITVIWLSLSRILNRGQLSLECFEFWQPTSQLLVLDVCLLDAFALEHHHHHH | not soluble
11 | MAHHHHHHMTAYPFPIIDVSPLYQNTGAVMEVAKKIDEACRTWGFFYVVGHPIPRERFQELSRMARKFFSLPLEEKLQIDIKKSRHHRGYGEVNAEQLDPSAPNDHKETFDMGCHLPEDHPDVVAGKPLRGPNRHPTQLEGWRELMETHYREMQHFALVLLRALAVAIGIEEDFFVPRFVEPLSVFRMIHYPALPKTKEGRLVCGEHTDYGIITLLFQDTNGGLQVRDLSGEWIDAPPLEGSFVVNIGDMMNMWSNNRYRSTPHRVVNPGVDRISMPFFCEPNPNVVIKCLENCHSAENPAKYPPVKASDWLQKRFAQTYAYRKSML | soluble
12 | MGSLYTSELSRAVSESVAAALQRSFQGELRSASALGSGWSTSAELLNRNDSTERYFVKLSEPQAVSMFSAEFEGIQAMAESETVRVPAPICYGNTAERSFIVLEYLELGGIGNEAVYRDFGEKLAAMHRCSSGGRGYGWHRGNTIGSTPQLNTWMHSWADFFVENRLRYQLKLARSRQGGRLRNEDALLQRVHSVLQEHEIQHQVTPSLVHGDLWTGNVATLRNQNEVVIFDPATYYGDREVDLAMTELFGRLPRAFYQAYDASWPLPKGYREKRRVIYNLYHILNHGALFGGGYYDQAQSMIETILR | soluble
13 | DITVYNGQHKEAATAVAKAFEQETGIKVTLNSGKSEQLAGQLKEEGDKTPADVFYTELTATFADLSEAGLLAPISEQTIQQTAQKGVPLAPKKDWIALSGRSRVVVYDHTKLSEKDMEKSVLDYATPKWKGKIGYVSTSGAFLEQVVALSKMKGDKVALNWLKGLKENGKLYAKNSVALQAVENGEVPAALINNYYWYNLAKEKGVENLKSRLYFVRHQDPGALVSYSGAAVLKASKNQAEAQKFVDFLASKKGQEALVAARAEYPLRADVVSPFNLEPYEKLEAPVVSATTAQDKEHAIKLIEEAGLK | soluble
14 | MLTPPSLSLYIHIPWCVQKCPYCDFNSHAQKGEIPEQEYLDALLQDLDRDIERYQLKGDPRLLHSIFIGGGTPSLISAEGIARLLQGVAERIAFKPEIEITMEANPGTIEAQRFAGYRTAGVTRISIGVQSFEPEKLARLGRIHGQQEAVRAAQLAHQIGLNSFNLDLMHGLPDQTPEQALADLDQAIALNPPHLSWYQLTIEPNTLFYSKPPKLPDEDALWDIFELGHQKLSDAGYVQYEISGYSKPGYQCQHNLNYWRFGDYLGIGCGAHGKLSFADGRIVRTTKTKHPRGYLAALNNLAKAYLDSEQLVADQDKPFEFFMNRFRLIEPCPKADFTATTGLTIDVIRPTLDWALSEGYLSEDDQHWQITEKGKLFLNDLLEAFMADEEELEHHHHHH | not soluble
15 | MSLNASAPIPLNETQRLLRIRELCVLENTSDDVFDEIVAMTADFFQTPIALISIVDEHRQWFRARVGLNAQETPRNVSFCAYTILSDSLFEIPDATLDDRFMNNSLVTGHPDIRYYAGAPLITDDGIALGSLCVIDTKPREPMSEHQMQMLKRFASLVMKRIVSLRLSCFIDQPTGLYNRSRLQEDIHQALLSSVDYQLVVVDMITSAFLNDIVKALGYSFSQDLVTEIKSRLEHLLPPTCSLYKVSPTRFGFLLPGERAPDHLFRTILEDFETPVECRGIPVQMQVGLGVVTLNRDPTEEQDWMRMVISAADDARDRNLGWAMYEPHFDAAQQRAFKLLSSLTSAVHSHDQLRLVYQPRIDLASGLCTSVEALLRWNHPTLGPIGPAEFVPLAEKTALMRPLSLWVLTSAIEQAARWQQQGFDFRIAINVTPEDLTGPAFTDRMIRLLGQHKIDPTRFELEFTEGALMHNPAEVRHQLERMRQMGMDVAIDDFGTGYSNWNYLRQLPATTVKLDQSLIRNLASDKTDQRLVKALIGLAKKLGYCVVAEGIETDEIRRLVKQWGCDEGQGYLISKPMEADAVLNWLGPDRRLQTVTEAAEAAVIRDKRLEGHHHHHH | soluble
16 | MPSSIYRYETIQVAGRGAFGLVVIARDTLTSKRVAIKRIMVPNVSKVSLAREISCLRNLHHRNILKLLDCFPSADLMSIVTEEVPYTLGDIIKDKTRPKTEQFNRWYYTQILSGIAYLHSKEIMHRDIKPENILVTSRNVVKIADFGQACFYMPKDPNQEYDVNVATRWYRAPELLFGSKKYKPDVDIWAIGCILAELVRGKPIFPGRSELEQISIIFGVLGTPNEDNWPNWRTMPDANKLLFEPKEPRNNWTEILLCKEISNNFTEFLGSHLQFFKRLKASELLKEPWIKQGLPLVEPNYRISKKSTRRNQRDALPPLHVFL | not soluble
17 | MSLNKNIKSLNLREKDPFLSREKQRYEHPLPSREWIIELLERKGVPSKIESLARELSITEDEYVFFERRLKAMARDGQVLINRRGAVCAADKLDLVKCRVEAHKDGFGFAVPLTPAKDGDFVLYERQMRGIMHGDIVTVRPAGMDRRGRREGTVLDIVERAQSKVVGRFYMDRGVAILEPEDKRLNQSIVLEPDGVARFKPESGQVIVGEIEVYPEQNRPAVAKIIEVLGDYADSGMEIEIAVRKHHLPHQFSEACAKAAKKIPVHVRKSDLKGRVDLRDLPLVTIDGETARDFDDAVFAEKVGRNYRLVVAIADVSHYVRPDDVIDADAQERSTSVYFPRRVIPMLPENLSNGICSLNPDVERLCMVCDMVVTYAGNIKEYRFYPAVMRSHARLTYNQVWKWISDGIDHPYKAQIDTLYKLFKILQKKRFERGAVEFESVETQMIFDDNGKIEKIVPVVRNDAHKLIEECMLAANVCAADFLLKNKHTALFRNHLGPTPEKLATLREQLGLLGLQLGGGDNPSPKDYAALVEQFKGRPDAELLQVMMLRSMQQAVYEPHCDGHFGLAYEAYAHFTSPIRRYPDLTVHRAIKAVLNQQTYTPKKSWQALGVHTSFCERRADDASRDVENWLKTYYMRDKVGEVFEGKISGMTSFGIFVTLDGIHIDGLVHISDLGEDYFNFRPEIMAIEGERSGIRFNMGDRVAVRVARADLDDGKIDFVLIAGGSGRGRKVKSSASAKPAGTAGKGKPKTAAEKKTARGGKVRGRGASAAAESRKKAKKPVPIKVKKRKGKSEGHHHHHH | not soluble
18 | MSLVDDPLIVVNSEKVDKEYAELLMDKYYSKRTLEINSDNEIVVTENIIYNVPALDEFEINDGKGNLLVEFTKSGETVTYKNFEYEEELESDDEGDEVTFMGKTYKLIEYDEDEKIVLGNKVEDTETTEEFSYDAFTFKIIGMDSTGQILVSVYEGSDRIENVKMYPDDTYFVSGSKISIYYDEYMESGDTPYFFFEIYDSLEIEDGETISGYSNIDTDLDGKRINLEYESPKSLSQNFELLNYKVELTDVSDEDLTVFFTVTQNLNYEFDMDEGTKYFGNNIFAVKIENDEDDDSDDESYLYKNNKKYSEIVDYQGSVQLVDQDELLSASSDLILIGGPVSNKVTESIQNSLSVEVTNDYPGEGKGIIQTITNPNNDESTILVLAGSDRDGTKACVLALNQGLYSGSGNLVVKLTGDDSVSVEGHHHHHH | not soluble
19 | EHEKGQKLIKTMDQEIDEVAKIGKTIKKPKTVLFEVAALPDIYSFGNGTFLNEMIETIGAKNVLANEKGWLPVTEEAAIAAKPEVILTNVNYMKDPAKEILARKNWESVPAVQNKEVFEIDNMSSSLPNNHITKALKQMAKAVYPEEYKDLKDE | not soluble
20 | MNYVERYIEQFLRATVRNNIKHYLLMLDEKMKNLDDYMRYLITKKEQLSKLIDSLMLTLENKYIDIAEAFQIQCAREINNQEIENIKSELNKVEAYYAQIETQIQQTSTEKIATEKTSYLINYMNAVALEHHHHHH | soluble
21 | MHHHHHHSSGVDLGTENLYFQSMSTDSVISSESGNTYYRVVLIGEQGVGKSTLANIFAGVHDSMDSDCEVLGEDTYERTLMVDGESATIILLDMWENKGENEWLHDHCMQVGDAYLIVYSITDRASFEKASELRIQLRRARQTEDIPIILVGNKSDLVRCREVSVSEGRACAVVFDCKFIETSAAVQHNVKELFEGIVRQVRLRRDSKEKN | soluble
